Target: T1, MLO-Y4 cell surface proteins (Mus musculus, UniProt E9PW83)
T1 construct: endogenous in cells; host or cells: MLO-Y4
T1 sequence (E9PW83 1-1143): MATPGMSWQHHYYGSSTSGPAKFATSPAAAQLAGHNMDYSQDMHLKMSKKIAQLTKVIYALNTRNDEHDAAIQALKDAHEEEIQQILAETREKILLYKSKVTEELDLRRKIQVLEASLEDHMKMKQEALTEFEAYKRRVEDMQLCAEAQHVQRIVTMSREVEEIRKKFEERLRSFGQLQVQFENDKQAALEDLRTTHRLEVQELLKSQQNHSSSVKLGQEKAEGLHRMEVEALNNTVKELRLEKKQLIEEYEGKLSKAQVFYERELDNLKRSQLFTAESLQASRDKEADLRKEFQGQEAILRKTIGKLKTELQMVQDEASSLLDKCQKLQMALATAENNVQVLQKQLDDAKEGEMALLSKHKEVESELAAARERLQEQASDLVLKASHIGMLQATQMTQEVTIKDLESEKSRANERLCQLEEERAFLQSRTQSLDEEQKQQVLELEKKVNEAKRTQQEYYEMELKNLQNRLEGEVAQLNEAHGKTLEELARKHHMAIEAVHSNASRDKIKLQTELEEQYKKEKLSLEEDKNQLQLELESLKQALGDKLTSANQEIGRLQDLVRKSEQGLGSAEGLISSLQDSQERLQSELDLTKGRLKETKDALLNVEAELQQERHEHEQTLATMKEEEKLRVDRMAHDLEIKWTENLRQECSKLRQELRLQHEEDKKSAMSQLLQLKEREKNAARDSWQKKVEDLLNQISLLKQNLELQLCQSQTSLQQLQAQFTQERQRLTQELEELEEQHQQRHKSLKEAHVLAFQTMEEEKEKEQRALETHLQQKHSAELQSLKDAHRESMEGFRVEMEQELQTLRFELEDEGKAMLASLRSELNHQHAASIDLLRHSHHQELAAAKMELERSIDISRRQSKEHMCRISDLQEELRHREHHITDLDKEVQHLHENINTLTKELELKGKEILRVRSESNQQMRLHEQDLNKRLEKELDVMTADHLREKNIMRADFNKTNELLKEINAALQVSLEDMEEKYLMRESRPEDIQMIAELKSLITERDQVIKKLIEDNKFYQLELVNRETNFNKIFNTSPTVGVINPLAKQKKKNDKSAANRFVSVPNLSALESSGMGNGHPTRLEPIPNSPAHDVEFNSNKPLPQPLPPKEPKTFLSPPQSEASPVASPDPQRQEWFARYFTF
Experiment: Crosslinking/co-immunoprecipitation/mass spectrometry (TMT quantitative proteomics) to identify irisin receptors
Format: binding
Settings: co-precipitated protein Fam184a (E9PW83_MOUSE)
Procedure: MLO-Y4 cells were seeded on 30×150 mm type-I collagen coated dishes as described in cell culture experiment. At 60% cell density, medium was switched to FreeStyle™ 293 Expression medium. After 4 hours incubation, the cells were chilled on ice for 10 minutes, followed by treatment of 10 nM his-tag irisin or his-tag adipsin for 20 minutes. The cells were then incubated with 1.5 mM DTSSP for 30 minutes on ice to do cross-linking, after washing with 15 ml cold PBS twice. The cross-linking was quenched by addition of a final concentration of 20 mM Tris-pH 7.5. The cells were then harvested and homogenized in 1 ml RIPA buffer containing proteaseinhibitor cocktailand phosphatase-inhibitor cocktail. Whole-cell lysates were homogenized by 10 times passages through a 22G needle fitted to a 3 ml syringe. Homogenized samples were rotated gently in cold room for 20 minutes followed by 15,000×g centrifugation for 10 minutes. After addition of a final concentration of 10 mM imidazole, supernatants were incubated with 100 μl Ni-NTA agarose for 1 hour. After centrifugation at 500×g for 1 minute, the supernatants were aspirated and 1 ml cold RIPA buffer containing 10 mM imidazole were added to the agarose. After 10 minutes rotation in cold room, the supernatants were aspirated and 1 ml cold RIPA buffer containing 30 mM imidazole were added to the agarose. After repeating the washing 3 times, 0.8 ml RIPA buffer containing 250 mM imidazole was added and the agarose was gently rotated in a cold room for 20 minutes. After centrifugation at 1000×g for 2 minutes, the supernatants were transferred to 1.5 ml tube and incubated with 100 μl 0.2% sodium deoxycholate and 100 μl 10% trichloroacetic acid in ice for 1 hour. After centrifugation at 12,000×g for 10 minutes at 4° C., the supernatants were removed and 1 ml cold acetone was added to the pellets followed by vortexing for 10 seconds. After one more washing with cold acetone, the pellets were dried at 37° C., and 39 μl PBS and 13 μl 4×NuPAGE LDS were added to the pellets with a final concentration of 5 mM DTT. Solubilized proteins were incubated at 65° C. for 20 minutes followed by incubation with a final concentration of 14 mM iodoacetamide for 45 minutes in the dark. 38 μl samples were loaded to 4-12% gradient SDS-PAGE for separation followed by Coomassie Blue staining. The gels were submitted to quantitative proteomics.
For in-gel digestions, gels were stained with Coomassie Blue and were excised into 8 equal segments for control and irisin lanes. Gel pieces were destained and dehydrated with 100% acetonitrile, vacuumed dried, and digested in 25 mM HEPES (pH 8.5) with 500 ng sequencing grade trypsin (Promega) and incubated for an overnight at 37° C. (Shevchenko et al. (1996) Anal. Chem. 68:850-858). Digests were treated with 1% formic acid and purified using C18 Stage-Tips as previously described (Rappsilber et al. (2007) Nat. Protoc. 2:1896-1906). Peptides were eluted with 70% acetonitrile and 1% formic acid, then dried using a speedvac. Isobaric labeling of digested peptides was accomplished using 6-plex tandem mass tag (TMT) reagents (Thermo Fisher Scientific, Rockford, Ill.). Reagents, 5.0 mg, were dissolved in 252 μl acetonitrile (ACN) and 5 μl of the solution was added to the digested peptides dissolved in 25 μl of 200 mM HEPES, pH 8.5. After 1 hour at room temperature, the reaction was quenched by adding 1 μl of 5% hydroxylamine. Labeled peptides were combined and acidified prior to C18 Stage-Tips desalting.
All LC-MS/MS experiments were performed on an Orbitrap Fusion™ Lumos mass spectrometer (Thermo Fisher Scientific, San Jose, Calif., USA) coupled with a Proxeon EASY-nLC™ 1200 LC pump (Thermo Fisher Scientific). Peptides were separated on a 100 μm inner diameter microcapillary column packed with 35 cm of Accucore™ C18 resin (1.8 μm, 100 Å, Thermo Fisher Scientific). […]

TMT signal-to-noise ratio: 877.972
Substance: adipsin

— US20210063414A1, “METHODS FOR PREVENTING AND/OR TREATING BONE LOSS CONDITIONS BY MODULATING IRISIN” (Dana-Farber Cancer Institute, Inc., priority 2018, published 2021)
